Data reported in patent US20160264649A1.

How the values were obtained:
Experiment in all cases: cell-based or functional assay
[1] = target: HIV-1 Env of isolate 92UG001 (subtype D) (HIV-1)
[2] = target: HIV-1 Env of isolate 92UG005 (subtype D) (HIV-1)
[3] = target: HIV-1 Env of isolate 92UG024 (subtype D) (HIV-1)
[4] = target: HIV-1 Env of isolate 92UG046 (subtype D) (HIV-1)
[5] = target: HIV-1 Env of isolate 92UG114 (subtype D) (HIV-1)
[6] = target: HIV-1 Env of isolate 98CN006 (subtype CRF08_BC) (HIV-1)
[7] = target: HIV-1 Env of isolate 98CN009 (subtype CRF07_BC) (HIV-1)
[8] = target: HIV-1 Env of isolate MGRM-D-001 (subtype D) (HIV-1)
[9] = target: HIV-1 Env of isolate MGRM-D-002 (subtype D) (HIV-1)
[10] = target: HIV-1 Env of isolate MGRM-D-003 (subtype D) (HIV-1)
[11] = target: HIV-1 Env of isolate MGRM-D-004 (subtype D) (HIV-1)
[12] = target: HIV-1 Env of isolate MGRM-D-005 (subtype D) (HIV-1)
[13] = target: HIV-1 Env of isolate MGRM-D-008 (subtype D) (HIV-1)
[14] = target: HIV-1 Env of isolate MGRM-D-011 (subtype D) (HIV-1)
[15] = target: HIV-1 Env of isolate MGRM-D-012 (subtype D) (HIV-1)
[16] = target: HIV-1 Env of isolate MGRM-D-013 (subtype D) (HIV-1)
[17] = target: HIV-1 Env of isolate MGRM-D-014 (subtype D) (HIV-1)
[18] = target: HIV-1 Env of isolate MGRM-D-016 (subtype D) (HIV-1)
[19] = target: HIV-1 Env of isolate MGRM-D-018 (subtype D) (HIV-1)
[20] = target: HIV-1 Env of isolate MGRM-D-019 (subtype D) (HIV-1)
[21] = target: HIV-1 Env of isolate MGRM-D-020 (subtype D) (HIV-1)
[22] = target: HIV-1 Env of isolate MGRM-D-021 (subtype D) (HIV-1)
[23] = target: HIV-1 Env of isolate MGRM-D-022 (subtype D) (HIV-1)
[24] = target: HIV-1 Env of isolate MGRM-D-024 (subtype D) (HIV-1)
[25] = target: HIV-1 Env of isolate MGRM-D-026 (subtype D) (HIV-1)
[26] = target: HIV-1 Env of isolate MGRM-D-028 (subtype D) (HIV-1)
[27] = target: HIV-1 Env of isolate MGRM-D-029 (subtype D) (HIV-1)
[28] = target: HIV-1 Env of isolate MGRM-F1-004 (subtype F) (HIV-1)
[29] = target: HIV-1 Env of isolate MGRM-F1-006 (subtype F) (HIV-1)
[30] = target: HIV-1 Env of isolate MGRM-F1-008 (subtype F) (HIV-1)
[31] = target: HIV-1 Env of isolate MGRM-F1-010 (subtype F) (HIV-1)
[32] = target: HIV-1 Env of isolate MGRM-F1-012 (subtype F) (HIV-1)
[33] = target: HIV-1 Env of isolate MGRM-F1-013 (subtype F) (HIV-1)
[34] = target: HIV-1 Env of isolate MGRM-F1-014 (subtype F) (HIV-1)
[35] = target: HIV-1 Env of isolate MGRM-F1-015 (subtype F) (HIV-1)
[36] = target: HIV-1 Env of isolate MGRM-F1-016 (subtype F) (HIV-1)
[37] = target: HIV-1 Env of isolate MGRM-F1-017 (subtype F) (HIV-1)
[38] = target: HIV-1 Env of isolate MGRM-F1-018 (subtype F) (HIV-1)
[39] = target: HIV-1 Env of isolate MGRM-F1-020 (subtype F) (HIV-1)
[40] = target: HIV-1 Env of isolate MGRM-F1-021 (subtype F) (HIV-1)
[41] = target: HIV-1 Env of isolate MGRM-F1-022 (subtype F) (HIV-1)
[42] = target: HIV-1 Env of isolate MGRM-F1-023 (subtype F) (HIV-1)
[43] = target: HIV-1 Env of pseudovirus isolate MGRM-G-001 (subtype G) (HIV-1)
[44] = target: HIV-1 Env of pseudovirus isolate MGRM-G-004 (subtype G) (HIV-1)
[45] = target: HIV-1 Env of pseudovirus isolate MGRM-G-006 (subtype G) (HIV-1)
[46] = target: HIV-1 Env of pseudovirus isolate MGRM-G-009 (subtype G) (HIV-1)
[47] = target: HIV-1 Env of pseudovirus isolate MGRM-G-011 (subtype G) (HIV-1)
[48] = target: HIV-1 Env of pseudovirus isolate MGRM-G-013 (subtype G) (HIV-1)
[49] = target: HIV-1 Env of pseudovirus isolate MGRM-G-014 (subtype G) (HIV-1)
[50] = target: HIV-1 Env of pseudovirus isolate MGRM-G-015 (subtype G) (HIV-1)
[51] = target: HIV-1 Env of pseudovirus isolate MGRM-G-016 (subtype G) (HIV-1)
[52] = target: HIV-1 Env of pseudovirus isolate MGRM-G-017 (subtype G) (HIV-1)
[53] = target: HIV-1 Env of pseudovirus isolate MGRM-G-019 (subtype G) (HIV-1)
[54] = target: HIV-1 Env of pseudovirus isolate MGRM-G-024 (subtype G) (HIV-1)
[55] = target: HIV-1 Env of pseudovirus isolate MGRM-G-025 (subtype G) (HIV-1)
[56] = target: HIV-1 Env of pseudovirus isolate MGRM-G-027 (subtype G) (HIV-1)
[57] = target: HIV-1 Env of pseudovirus isolate MGRM-G-028 (subtype G) (HIV-1)
[58] = target: envelope of aMLV pseudovirus (negative control)

PGT-141 (antibody), sequence (VH): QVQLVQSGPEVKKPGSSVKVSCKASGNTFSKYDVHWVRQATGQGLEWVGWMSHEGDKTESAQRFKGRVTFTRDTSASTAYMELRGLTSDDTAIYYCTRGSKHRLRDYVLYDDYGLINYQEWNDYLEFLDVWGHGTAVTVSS
PGT-141 (antibody), sequence (VL): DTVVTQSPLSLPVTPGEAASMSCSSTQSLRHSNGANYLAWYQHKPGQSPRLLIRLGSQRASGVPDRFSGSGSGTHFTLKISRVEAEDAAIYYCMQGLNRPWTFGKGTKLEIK
PGT-142 (antibody), sequence (VH): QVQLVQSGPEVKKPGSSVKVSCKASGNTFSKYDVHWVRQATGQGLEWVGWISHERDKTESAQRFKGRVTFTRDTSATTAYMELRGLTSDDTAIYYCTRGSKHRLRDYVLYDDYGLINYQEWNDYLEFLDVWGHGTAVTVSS
PGT-142 (antibody), sequence (VL): as the sequence (VL) above

**Q.** What does the source list for PGT-121 (antibody)?
**A.** IC50 (neutralization) [1]: > 50 µg/mL; IC50 (neutralization) [2]: 18.3 µg/mL; IC50 (neutralization) [3]: > 50 µg/mL; IC50 (neutralization) [4]: > 50 µg/mL; IC50 (neutralization) [5]: 0.004 µg/mL; IC50 (neutralization) [6]: 0.01 µg/mL; IC50 (neutralization) [7]: 0.009 µg/mL; IC50 (neutralization) [8]: 0.615 µg/mL; IC50 (neutralization) [9]: 0.006 µg/mL; IC50 (neutralization) [10]: 10.7 µg/mL; IC50 (neutralization) [11]: > 50 µg/mL; IC50 (neutralization) [12]: > 50 µg/mL; IC50 (neutralization) [13]: > 50 µg/mL; IC50 (neutralization) [14]: 0.018 µg/mL; IC50 (neutralization) [15]: > 50 µg/mL; IC50 (neutralization) [16]: > 50 µg/mL; IC50 (neutralization) [17]: 0.009 µg/mL; IC50 (neutralization) [18]: > 50 µg/mL; IC50 (neutralization) [19]: 0.005 µg/mL; IC50 (neutralization) [20]: > 50 µg/mL; IC50 (neutralization) [21]: 0.01 µg/mL; IC50 (neutralization) [22]: 5.33 µg/mL; IC50 (neutralization) [23]: > 50 µg/mL; IC50 (neutralization) [24]: 0.038 µg/mL; IC50 (neutralization) [25]: > 50 µg/mL; IC50 (neutralization) [26]: 0.009 µg/mL; IC50 (neutralization) [27]: > 50 µg/mL; IC50 (neutralization) [28]: 1.67 µg/mL; IC50 (neutralization) [29]: 5.33 µg/mL; IC50 (neutralization) [30]: > 50 µg/mL; IC50 (neutralization) [31]: 0.016 µg/mL; IC50 (neutralization) [32]: 1.91 µg/mL; IC50 (neutralization) [33]: 0.083 µg/mL; IC50 (neutralization) [34]: 0.082 µg/mL; IC50 (neutralization) [35]: 28.4 µg/mL; IC50 (neutralization) [36]: 0.931 µg/mL; IC50 (neutralization) [37]: 16.9 µg/mL; IC50 (neutralization) [38]: 0.04 µg/mL; IC50 (neutralization) [39]: 0.167 µg/mL; IC50 (neutralization) [40]: 0.099 µg/mL; IC50 (neutralization) [41]: 0.104 µg/mL; IC50 (neutralization) [42]: 0.097 µg/mL; IC50 [43]: 0.004 µg/mL; IC50 [44]: 0.115 µg/mL; IC50 [45]: > 50 µg/mL; IC50 [46]: 0.02 µg/mL; IC50 [47]: 3.17 µg/mL; IC50 [48]: 3.99 µg/mL; IC50 [49]: 0.009 µg/mL; IC50 [50]: > 50 µg/mL; IC50 [51]: > 50 µg/mL; IC50 [52]: 0.004 µg/mL; IC50 [53]: 0.011 µg/mL; IC50 [54]: 0.014 µg/mL; IC50 [55]: 0.063 µg/mL; IC50 [56]: 0.124 µg/mL; IC50 [57]: 0.014 µg/mL; IC50 [58]: > 50 µg/mL

**Q.** How did the IC50 (neutralization) [1] turn out when PGT-141 (antibody) was run?
**A.** > 50 µg/mL

**Q.** What about the IC50 (neutralization) [2] of the same substance?
**A.** > 50 µg/mL

**Q.** And the IC50 (neutralization) [3]?
**A.** > 50 µg/mL

**Q.** And the IC50 (neutralization) [4]?
**A.** > 50 µg/mL

**Q.** What about the IC50 (neutralization) [6] of the same substance?
**A.** > 50 µg/mL

**Q.** And the IC50 (neutralization) [7]?
**A.** 1.28 µg/mL

**Q.** And the IC50 [43]?
**A.** 0.392 µg/mL

**Q.** And the IC50 [44]?
**A.** > 50 µg/mL

**Q.** What about the IC50 [45] of the same substance?
**A.** 0.043 µg/mL

**Q.** What about the IC50 [46] of the same substance?
**A.** 1.89 µg/mL

**Q.** And the IC50 [47]?
**A.** 0.086 µg/mL

**Q.** What about the IC50 [48] of the same substance?
**A.** > 50 µg/mL

**Q.** What about the IC50 [49] of the same substance?
**A.** 0.222 µg/mL

**Q.** What about the IC50 [50] of the same substance?
**A.** > 50 µg/mL

**Q.** What about the IC50 [51] of the same substance?
**A.** 4.69 µg/mL

**Q.** And the IC50 [52]?
**A.** 0.164 µg/mL

**Q.** What about the IC50 [53] of the same substance?
**A.** 20.3 µg/mL

**Q.** What about the IC50 [54] of the same substance?
**A.** 0.051 µg/mL

**Q.** What about the IC50 [55] of the same substance?
**A.** > 50 µg/mL

**Q.** What about the IC50 [56] of the same substance?
**A.** > 50 µg/mL

**Q.** And the IC50 [57]?
**A.** 24.9 µg/mL

**Q.** What about the IC50 [58] of the same substance?
**A.** > 50 µg/mL

**Q.** With PGT-142 (antibody) as the substance, how does the IC50 (neutralization) [1] read?
**A.** > 50 µg/mL

**Q.** What about the IC50 (neutralization) [2] of the same substance?
**A.** > 50 µg/mL

**Q.** What about the IC50 (neutralization) [3] of the same substance?
**A.** > 50 µg/mL

**Q.** And the IC50 (neutralization) [4]?
**A.** > 50 µg/mL

**Q.** What about the IC50 (neutralization) [6] of the same substance?
**A.** > 50 µg/mL

**Q.** What about the IC50 (neutralization) [7] of the same substance?
**A.** 4 µg/mL

**Q.** And the IC50 [43]?
**A.** 0.362 µg/mL

**Q.** What about the IC50 [44] of the same substance?
**A.** > 50 µg/mL

**Q.** What about the IC50 [45] of the same substance?
**A.** 0.019 µg/mL

**Q.** What about the IC50 [46] of the same substance?
**A.** 2.81 µg/mL

**Q.** What about the IC50 [47] of the same substance?
**A.** 0.046 µg/mL

**Q.** And the IC50 [48]?
**A.** > 50 µg/mL

**Q.** And the IC50 [49]?
**A.** 0.076 µg/mL

**Q.** And the IC50 [50]?
**A.** > 50 µg/mL

**Q.** And the IC50 [51]?
**A.** 8.17 µg/mL

**Q.** What about the IC50 [52] of the same substance?
**A.** 0.125 µg/mL

**Q.** What about the IC50 [53] of the same substance?
**A.** 5.95 µg/mL

**Q.** And the IC50 [54]?
**A.** 0.054 µg/mL

**Q.** And the IC50 [55]?
**A.** > 50 µg/mL

**Q.** What about the IC50 [56] of the same substance?
**A.** > 50 µg/mL

**Q.** And the IC50 [57]?
**A.** 30.3 µg/mL

**Q.** What about the IC50 [58] of the same substance?
**A.** > 50 µg/mL
